Among the data in US7364741 are binding ratio to standard, FI (Fluorescence Index) and MF (mean fluorescence) values, retold here.

The target of assay [1] is HLA-A11.2 molecules isolated from the cell line BVR (human).
Assay [2] deals with HLA-A2.1 molecules isolated from the EBV transformed cell line JY (human).
Assay [3] deals with HLA-A1 molecules isolated from the EBV transformed cell line Steinlin (human).
Assay [4] addresses HLA-A3.2 molecules isolated from the EBV transformed cell line GM3107 (human).
For assay [5], the target named is HLA-A24 molecules isolated from the EBV transformed cell line KT3 (human).
Assay [6] has as its target HLA-A2.1 molecules expressed by 174CEM.T2 cells (human). The assay can be described thus: T2 HLA-A2.1 stabilisation, flow cytometry (BB7.2), peptide 200 ug/ml.

Regarding “… (residues 140-148 of HPV16 protein E6), synthesized with alanine instead of cysteine (peptide; other documents disagree on this pair)”, the binding ratio to standard in assay [1] is 0.0012.

For the substance “… (residues 52-60 of HPV16 protein E6), synthesized with alanine instead of cysteine (peptide; other documents disagree on this pair)”, the binding ratio to standard in assay [2] stood at 0.37.

In the case of “… (residues 139-147 of HPV16 protein E6), synthesized with alanine instead of cysteine (peptide; other documents disagree on this pair)”, the binding ratio to standard in assay [3] came out at 0.02.

Turning to “… (residues 97-105 of HPV16 protein E6), synthesized with alanine instead of cysteine (peptide; other documents disagree on this pair)”, in assay [4], the binding ratio to standard amounted to 0.0045.

As for “… (residues 66-74 of HPV16 protein E6), synthesized with alanine instead of cysteine (peptide; other documents disagree on this pair)”, the binding ratio to standard in assay [5] was found to be 0.0055.

As for “… (residues 51-59 of HPV16 protein E7), synthesized with alanine instead of cysteine (peptide; other documents disagree on this pair)”, the binding ratio to standard came to 0.001 in assay [1] and 0.026 in assay [4].

In the case of “… (residues 82-90 of HPV16 protein E6), synthesized with alanine instead of cysteine (peptide; other documents disagree on this pair)”, the binding ratio to standard in assay [5] stood at 0.046.

Take “… (residues 79-87 of HPV16 protein E6) with alanine instead of cysteine (peptide; other documents disagree on this pair)”: the binding ratio to standard stood at 0.0076 in assay [1] and 0.0044 in assay [4].

For the substance “… (residues 80-88 of HPV16 protein E6), synthesized with alanine instead of cysteine (peptide; other documents disagree on this pair)”, the binding ratio to standard in assay [1] came to 0.43; in assay [4] it was 0.0064.

Consider “… (residues 38-46 of HPV16 protein E6), synthesized with alanine instead of cysteine (peptide; other documents disagree on this pair)”, for which the figures for the binding ratio to standard in assay [1], in assay [5] and in assay [4] were 0.0022, 0.0011 and 0.0012, respectively.

Regarding “… (residues 144-152 of HPV16 protein E6), synthesized with alanine instead of cysteine (peptide; other documents disagree on this pair)”, the binding ratio to standard in assay [3] amounted to 0.019.

On to “… (residues 52-60 of HPV16 protein E7), synthesized with alanine instead of cysteine (peptide; other documents disagree on this pair)”, for which the binding ratio to standard in assay [1] was determined as 0.006; in assay [4] it was 0.0067.

For “… (residues 72-80 of HPV16 protein E6), synthesized with alanine instead of cysteine (peptide; other documents disagree on this pair)”, the binding ratio to standard in assay [5] stood at 0.11.

Take “… (residues 37-45 of HPV16 protein E6) with alanine instead of cysteine (peptide; other documents disagree on this pair)”: the binding ratio to standard came out at 0.045 in assay [1] and 0.032 in assay [4].

“… (residues 67-75 of HPV16 protein E6), synthesized with alanine instead of cysteine (peptide; other documents disagree on this pair)”: the binding ratio to standard in assay [1] turned out to be 0.0074; in assay [4], 0.0012.

“… (residues 146-154 of HPV16 protein E6), synthesized with alanine instead of cysteine (peptide; other documents disagree on this pair)”: the binding ratio to standard in assay [4] was 0.002.

In assay [6], “[…] (residues 25-33 of HPV16 protein E6) (peptide; other documents disagree on this pair)” gave an FI (Fluorescence Index) of 0.6 and an MF (mean fluorescence) of 108.

As to “… (residues 19-27 of HPV16 protein E7), synthesized with alanine instead of cysteine (peptide; other documents disagree on this pair)”, in assay [3], the binding ratio to standard was found to be 0.023.

As for “… (residues 143-151 of HPV16 protein E6), synthesized with alanine instead of cysteine (peptide; other documents disagree on this pair)”, the values for the binding ratio to standard in assay [1] and in assay [4] were 0.0084 and 0.18, respectively.

In assay [6], “[…] (residues 82-90 of HPV16 protein E7) (peptide; other documents disagree on this pair)” yielded an FI (Fluorescence Index) of 0.8 and an MF (mean fluorescence) of 119.

Consider “… (residues 69-77 of HPV16 protein E6), synthesized with alanine instead of cysteine (peptide; other documents disagree on this pair)”, for which the binding ratio to standard in assay [1] came out at 0.003; in assay [4] it was 0.0025.

Turning to “… (residues 84-92 of HPV16 protein E6), synthesized with alanine instead of cysteine (peptide; other documents disagree on this pair)”, the binding ratio to standard in assay [4] worked out at 0.0036.

On to “… (residues 33-41 of HPV16 protein E6), synthesized with alanine instead of cysteine (peptide; other documents disagree on this pair)”, for which the binding ratio to standard in assay [1] is 6.7; in assay [4], 1.5.

Regarding “… (residues 58-66 of HPV16 protein E7), synthesized with alanine instead of cysteine (peptide; other documents disagree on this pair)”, the binding ratio to standard in assay [1] stood at 0.011; in assay [4] it was 0.0016.

Turning to “… (residues 60-68 of HPV16 protein E7), synthesized with alanine instead of cysteine (peptide; other documents disagree on this pair)”, the binding ratio to standard in assay [4] was determined as 0.0012.

In the case of “… (residues 107-115 of HPV16 protein E6), synthesized with alanine instead of cysteine (peptide; other documents disagree on this pair)”, the figures for the binding ratio to standard in assay [1] and in assay [4] were 0.012 and 3.7, respectively.

On to “… (residues 87-95 of HPV16 protein E6), synthesized with alanine instead of cysteine (peptide; other documents disagree on this pair)”, for which the binding ratio to standard in assay [5] is 0.12.

With “… (residues 90-98 of HPV16 protein E7), synthesized with alanine instead of cysteine (peptide; other documents disagree on this pair)”, the binding ratio to standard in assay [1] stood at 0.0012.

With “… (residues 68-76 of HPV16 protein E6), synthesized with alanine instead of cysteine (peptide; other documents disagree on this pair)”, the binding ratio to standard in assay [1] stood at 0.0037; in assay [4], 0.0056.

On to “… (residues 85-93 of HPV16 protein E6), synthesized with alanine instead of cysteine (peptide; other documents disagree on this pair)”, for which the binding ratio to standard in assay [5] turned out to be 0.0037.

Take “… (residues 145-153 of HPV16 protein E6), synthesized with alanine instead of cysteine (peptide; other documents disagree on this pair)”: the binding ratio to standard in assay [4] was 0.02.

In assay [6], “… (residues 86-94 of HPV16 protein E7) (peptide)” yielded an FI (Fluorescence Index) of 2.5 and an MF (mean fluorescence) of 228.
